Data reported in patent US20130034559A1 (AstraZeneca / MedImmune, published 2013).

T1: extracellular domain of human PD-L2 (R&D Systems, 1224-PL) (human, UniProt Q9BQ51 20-220)
T1 construct: extracellular domain; Bought
T1 sequence (looked up): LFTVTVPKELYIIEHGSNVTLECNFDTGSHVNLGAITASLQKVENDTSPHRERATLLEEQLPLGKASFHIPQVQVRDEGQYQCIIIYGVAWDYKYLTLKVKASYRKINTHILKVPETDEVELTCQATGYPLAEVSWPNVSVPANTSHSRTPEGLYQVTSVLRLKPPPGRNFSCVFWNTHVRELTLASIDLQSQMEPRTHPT

T2: extracellular domain of human B7-H2 (R&D Systems, 165-B7) (human, UniProt O75144 19-256)
T2 construct: extracellular domain; Bought
T2 sequence (looked up): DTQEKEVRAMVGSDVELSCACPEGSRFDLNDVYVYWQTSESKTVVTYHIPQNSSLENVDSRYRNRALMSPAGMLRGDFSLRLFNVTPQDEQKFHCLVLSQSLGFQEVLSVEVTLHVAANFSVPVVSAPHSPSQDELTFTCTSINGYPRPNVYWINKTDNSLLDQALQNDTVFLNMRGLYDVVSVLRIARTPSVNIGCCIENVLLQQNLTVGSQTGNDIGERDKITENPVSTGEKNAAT

T3: extracellular domain of human CTLA-4 (R&D Systems, 325-CT) (human, UniProt P16410 36-161)
T3 construct: extracellular domain; Bought
T3 sequence (looked up): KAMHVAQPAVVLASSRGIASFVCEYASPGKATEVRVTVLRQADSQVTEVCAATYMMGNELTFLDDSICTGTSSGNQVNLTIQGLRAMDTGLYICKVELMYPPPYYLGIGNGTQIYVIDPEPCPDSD


Experiments:
[1] = biological target: T4, human PD-1/Fc protein (R&D Systems, catalog #1086-PD) (human, UniProt Q15116 25-170); assay: ELISA, biotinylated IgG1-TM on coated ECD
T4 construct: extracellular domain; Bought; not shown: Fc portion
T4 sequence (Q15116 25-170): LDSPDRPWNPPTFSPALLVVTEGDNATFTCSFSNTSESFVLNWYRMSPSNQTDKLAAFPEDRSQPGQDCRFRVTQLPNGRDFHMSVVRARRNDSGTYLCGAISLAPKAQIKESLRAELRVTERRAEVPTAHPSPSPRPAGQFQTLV
Description: (§1) ELISAs were performed to determine the cross-reactivity of the anti-B7-H1 IgG1-TM antibodies for other immune co-modulatory molecules. […] Murine cross reactivity was also investigated by coating the ECD of murine B7-H1 (R&D Systems, 1019-B7). Biotinylated anti-B7-H1 IgG1-TM diluted at 100 nM in PBS containing 3% dried milk powder, were incubated at room temperature for 2 h to allow binding. Bound biotinylated IgGs were detected with europium N1-labelled streptavidin (Perkin Elmer, 1244-360) at 0.2 ug/mL. […] Primary antibodies were incubated at 5 ug/mL in PBS containing 3% dried milk powder for 2 h at room temperature. Detection was carried out by incubating the secondary antibody anti-mouse IgG Peroxidase conjugate (Sigma, A2554) or anti-rat IgG Peroxidase conjugate (Sigma, A5795) diluted 1:5000 in PBS containing 3% dried milk powder for 1 h at room temperature and subsequent addition of TMB (Sigma, T0440). […] Non-specific binding was determined using wells coated with the IgG1 isotype control at 5 ug/mL. Cross reactivities were calculated at a percent of the specific binding to the antigen relative to human B7-H1.

[2] = biological target: T1, extracellular domain of human PD-L2 …; assay: ELISA, biotinylated IgG1-TM on coated ECD
Description: as §1

[3] = biological target: T2, extracellular domain of human B7-H2 …; assay: ELISA, biotinylated IgG1-TM on coated ECD
Description: as §1

[4] = biological target: T5, extracellular domain of human CD28 (R&D Systems, 342-CD) (human, UniProt P10747 19-152); assay: ELISA, biotinylated IgG1-TM on coated ECD
T5 construct: extracellular domain; Bought
T5 sequence (P10747 19-152): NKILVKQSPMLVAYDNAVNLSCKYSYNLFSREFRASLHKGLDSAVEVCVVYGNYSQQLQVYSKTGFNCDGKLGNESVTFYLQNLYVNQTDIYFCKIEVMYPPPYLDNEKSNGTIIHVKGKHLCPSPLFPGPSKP
Description: as §1

[5] = biological target: T3, extracellular domain of human CTLA-4 …; assay: ELISA, biotinylated IgG1-TM on coated ECD
Description: as §1

[6] = biological target: T6, extracellular domain of murine B7-H1 (R&D Systems, 1019-B7) (murine, UniProt Q9EP73 19-239); assay: ELISA, biotinylated IgG1-TM on coated murine B7-H1 ECD
T6 construct: extracellular domain; Bought
T6 sequence (Q9EP73 19-239): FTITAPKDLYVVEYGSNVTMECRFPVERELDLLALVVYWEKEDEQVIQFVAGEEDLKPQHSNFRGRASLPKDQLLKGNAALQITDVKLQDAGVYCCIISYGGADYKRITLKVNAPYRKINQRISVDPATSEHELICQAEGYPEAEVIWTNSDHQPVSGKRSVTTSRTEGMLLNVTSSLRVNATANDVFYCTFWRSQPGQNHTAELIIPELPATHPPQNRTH
Description: as §1

[7] = biological target: T7, recombinant monomeric cynomologus B7-H1 FlagHis10 extracellular domain (cynomologus); assay: SPR (BIAcore T100), IgG captured via protein G, monomeric cynomologus B7-H1 ECD as analyte, 25 °C, 1:1 model
T7 construct: extracellular domain; also called CYNO B7H1
Description: The binding affinity and kinetic parameters of anti-B7-H1 antibodies in the IgG1-TM format to monomeric human and cynomologus B7-H1 were determined by surface plasmon resonance using a BIAcore T100 instrument (BIAcore, Uppsala, Sweden). In brief, experiments were performed at 25° C. using HBS-EP buffer (10 mM HEPES, 150 mM NaCl, 3 mM EDTA, 0.05% v/v surfactant P20) as running buffer. IgGs were affinity captured on the surface of a CM5 sensor chip (BIAcore) via protein G, which was amine coupled onto the CM5 surface to achieve the density of ˜500 Response Units (RU), according to the manufacturer's instructions (BIAapplications Handbook, BIAcore). Recombinant monomeric human or cynomologus B7-H1 FlagHis₁₀ extracellular domains (ECDs) were used as analytes. […] All measurements were baseline corrected by subtracting the sensorgram obtained with the control (activated-deactivated) flow cell, as well as double referenced with blank (zero analyte concentration) injections. Data were analyzed using the T-100 BIAevaluation software package and fitted to a simple 1:1 Langmuir binding model with local Rₘₐₓ and bulk refractive index set to 0. Data were calculated from at least two independent experiments. Mass transport effects were limited by keeping the level of affinity-captured IgGs below 250 RU.

binding result [1]	binding result [2]	binding result [3]	binding result [4]	binding result [5]	binding result [6]	Kd [7]	Binder
no binding (tested: 100 nM)	no binding (tested: 100 nM)	no binding (tested: 100 nM)	no binding (tested: 100 nM)	no binding (tested: 100 nM)	no binding (tested: 100 nM)	0.367 nM	2.14H9OPT (antibody, V domains shown, Germlined VL; human IgG1-TM (L234F, L235E, P331S), kappa) VH: EVQLVESGGGLVQPGGSLRLSCAASGFTFSRYWMSWVRQAPGKGLEWVANIKQDGSEKYYVDSVKGRFTISRDNAKNSLYLQMNSLRAEDTAVYYCAREGGWFGELAFDYWGQGTLVTVSS VL: EIVLTQSPGTLSLSPGERATLSCRASQRVSSSYLAWYQQKPGQAPRLLIYDASSRATGIPDRFSGSGSGTDFTLTISRLEPEDFAVYYCQQYGSLPWTFGQGTKVEIK
no binding (tested: 100 nM)	no binding (tested: 100 nM)	no binding (tested: 100 nM)	no binding (tested: 100 nM)	no binding (tested: 100 nM)	no binding (tested: 100 nM)		2.9D10 in the IgG1-TM format (antibody, V domains shown, Recombinant human IgG1-TM (IgG1 with L234F, L235E, P331S), kappa; also called 2.9D10 IgG1-TM) VH: EVQLVESGGGLVQPGGSLRLSCAASGFTFSSYWMSWVRQAPGKGLEWVANIKQDGGEQYYVDSVKGRFTISRDNAKNSLYLQMNSLRAEDTAVYYCARDWNYGYYDMDVWGQGTTVTVSS VL: EIVLTQSPGTLSLSPGERATLSCRASQSVSSNYLAWFQQKPGQAPRLLIFGTSSRATGIPDRFSGSGSGTDFTLTISRLEPEDFAVYYCQQYGSSIFTFGPGTKVDIK
